# Assays:
# dCas9-myc [1] = target: T1, dCas9-myc (UniProt Q99ZW2 SEQ:1-1368); test: dsDNA microarray, anti-myc; PAM NGG; conditions: label: Cy3-dUTP
# dCas9-myc [2] = target: T1, dCas9-myc; test: no-PAM control; binding depended on PAM; conditions: label: Cy3-dUTP
# dCas9-HA [3] = target: T2, dCas9-HA (UniProt Q99ZW2 SEQ:1-1368); test: dsDNA microarray, anti-HA; PAM NGG; conditions: label: Cy3-dUTP
# dCas9-6His [4] = target: T3, dCas9-6His (UniProt Q99ZW2 SEQ:1-1368); test: dsDNA microarray, anti-6His; PAM NGG; 37 C 16 h, 50 mM Tris pH 7.4, 150 mM NaCl; conditions: tags: C-terminal 6His (pdCas9-bacteria, Addgene #44249 derived); label: Cy3-dUTP
# dCas9-HA [5] = target: T2, dCas9-HA; test: no-PAM control; binding depended on PAM; conditions: label: Cy3-dUTP
# dCas9-6His [6] = target: T3, dCas9-6His; test: off-target probe with PAM; dsDNA microarray; conditions: tags: C-terminal 6His (pdCas9-bacteria, Addgene #44249 derived); label: Cy3-dUTP
# dCas9-6His [7] = target: T3, dCas9-6His; test: dsDNA microarray, perfect match; PAM NGG; conditions: tags: C-terminal 6His (pdCas9-bacteria, Addgene #44249 derived); label: Cy3-dUTP
# dCas9-scFv B1-182.1 = dCas9-scFv B1-182.1 (UniProt Q99ZW2 SEQ:1-1368); test: dsDNA microarray; detected via spike antigen and CR3022; PAM NGG; conditions: tags: C-terminal anti-spike scFv B1-182.1 fusion and 6His (Addgene #186421); label: Cy3-dUTP
binder,measurement,setting,value
sgRNA spacer AUAAAAG ; probe for G2 (ssRNA ; dsDNA) RNA: AUAAAAGAAACCCUCCGCAUGUUUUAGAGCUAGAAAUAGCAAGUUAAAAUAAGGCUAGUCCGUUAUCAACUUGAAAAAGUGGCACCGAGUCGGUGC DNA 1: GAGCGACGCTGCACCAATGCGGAGGGTTTCTTTTATCCCGACCTCACCCG DNA 2: CGGGTGAGGTCGGGATAAAAGAAACCCTCCGCATTGGTGCAGCGTCGCTC,binding result,dCas9-myc [1],binds
"sgRNA spacer AUAAAAG ; probe for G2, no PAM (ssRNA ; dsDNA) RNA: AUAAAAGAAACCCUCCGCAUGUUUUAGAGCUAGAAAUAGCAAGUUAAAAUAAGGCUAGUCCGUUAUCAACUUGAAAAAGUGGCACCGAGUCGGUGC DNA 1: GAGCGACGCTGCACGAATGCGGAGGGTTTCTTTTATCCCGACCTCACCCG DNA 2: CGGGTGAGGTCGGGATAAAAGAAACCCTCCGCATTCGTGCAGCGTCGCTC",binding result,dCas9-myc [2],no binding
sgRNA spacer CCGUACC ; probe for G1 (ssRNA ; dsDNA) RNA: CCGUACCUAGAUACACUCAAGUUUUAGAGCUAGAAAUAGCAAGUUAAAAUAAGGCUAGUCCGUUAUCAACUUGAAAAAGUGGCACCGAGUCGGUGC DNA 1: GAGCGACGCTGCACCATTGAGTGTATCTAGGTACGGCCCGACCTCACCCG DNA 2: CGGGTGAGGTCGGGCCGTACCTAGATACACTCAATGGTGCAGCGTCGCTC,binding result,dCas9-HA [3],binds
same,binding result,dCas9-6His [4],binds
"sgRNA spacer CCGUACC ; probe for G1, no PAM (ssRNA ; dsDNA) RNA: CCGUACCUAGAUACACUCAAGUUUUAGAGCUAGAAAUAGCAAGUUAAAAUAAGGCUAGUCCGUUAUCAACUUGAAAAAGUGGCACCGAGUCGGUGC DNA 1: GAGCGACGCTGCACGATTGAGTGTATCTAGGTACGGCCCGACCTCACCCG DNA 2: CGGGTGAGGTCGGGCCGTACCTAGATACACTCAATCGTGCAGCGTCGCTC",binding result,dCas9-HA [5],no binding
sgRNA spacer CCGUACC ; probe for G2 (ssRNA ; dsDNA) RNA: CCGUACCUAGAUACACUCAAGUUUUAGAGCUAGAAAUAGCAAGUUAAAAUAAGGCUAGUCCGUUAUCAACUUGAAAAAGUGGCACCGAGUCGGUGC DNA 1: GAGCGACGCTGCACCAATGCGGAGGGTTTCTTTTATCCCGACCTCACCCG DNA 2: CGGGTGAGGTCGGGATAAAAGAAACCCTCCGCATTGGTGCAGCGTCGCTC,binding result,dCas9-6His [6],no binding
sgRNA spacer CACUGUU ; probe for G4 (ssRNA ; dsDNA) RNA: CACUGUUUAACAAGCCCGUCGUUUUAGAGCUAGAAAUAGCAAGUUAAAAUAAGGCUAGUCCGUUAUCAACUUGAAAAAGUGGCACCGAGUCGGUGC DNA 1: GAGCGACGCTGCACCAGACGGGCTTGTTAAACAGTGCCCGACCTCACCCG DNA 2: CGGGTGAGGTCGGGCACTGTTTAACAAGCCCGTCTGGTGCAGCGTCGCTC,binding result,dCas9-6His [7],binds
sgRNA spacer AGAGACU ; probe for G3 (ssRNA ; dsDNA) RNA: AGAGACUGCCCGACACAUCUGUUUUAGAGCUAGAAAUAGCAAGUUAAAAUAAGGCUAGUCCGUUAUCAACUUGAAAAAGUGGCACCGAGUCGGUGC DNA 1: GAGCGACGCTGCACCAAGATGTGTCGGGCAGTCTCTCCCGACCTCACCCG DNA 2: CGGGTGAGGTCGGGAGAGACTGCCCGACACATCTTGGTGCAGCGTCGCTC,binding result,dCas9-6His [7],binds
sgRNA spacer UCCAUAG ; probe for G5 (ssRNA ; dsDNA) RNA: UCCAUAGAUUUCUCCGUGAGGUUUUAGAGCUAGAAAUAGCAAGUUAAAAUAAGGCUAGUCCGUUAUCAACUUGAAAAAGUGGCACCGAGUCGGUGC DNA 1: GAGCGACGCTGCACCACTCACGGAGAAATCTATGGACCCGACCTCACCCG DNA 2: CGGGTGAGGTCGGGTCCATAGATTTCTCCGTGAGTGGTGCAGCGTCGCTC,binding result,dCas9-scFv B1-182.1,binds
same,binding result,dCas9-6His [7],binds

# Source: patent US20240352452, “CRISPR-BASED PROTEIN BARCODING AND SURFACE ASSEMBLY” (The Brigham and Women's Hospital, Inc., published 2024)
